These results are taken from the supplement of paper PMC9170038.

The test system of the data set is MS2 coat protein. As to the kind of experiment: apparent KD of MS2 coat protein; designed switch direction (-1 OFF switch, 1 ON switch): 1; higher = weaker reporter binding. Put shortly: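 The reported apparent KD is a per-design median over clusters, from curve fits of normalised cluster fluorescence. Protein titrations used SNAP-549-labelled MS2 coat protein, doubled from 0.7 or 1.5 nM to 3 µM, in Tris-HCl pH 7.5 buffer with KCl, MgCl2, BSA, DTT, tRNA and Tween-20, with no input, 200 uM small-molecule ligand, or an oligonucleotide input. The RNA switches were transcribed on Illumina chips by stalled E. coli RNA polymerase.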

Where [1] appears, read: input ligand: microRNA oligo, concentration not stated.
[2] abbreviates: Eterna round: R95, input ligand: FMN 200 uM.
Setting [3] is: Eterna round: R95, input ligand: microRNA oligo, concentration not stated.
Setting [4] is: Eterna round: R95, input ligand: none.

As for “AUUUUUAGUGCAGGAUAUGAUUAACAUGAGGAUCACCCAUGUGGUGUUGUGAGUAAGGAGAGUGAUCAGAAGGGCAUUUUUUUU [JMF's solution 92] (Eterna round: R96, puzzle: Same State NG 2)”, the “apparent KD of MS2 coat protein” value runs as follows: (input ligand: FMN 200 uM) 1020 nM; under setting [1], 452 nM; (input ligand: none) 456 nM.

For “CACAUGAGGAUCACCCAUGUGAGGCGGCAAUAAAACCGCGCACAGGAUAUAGCGCUAUAAAUGCACUAGAAGGGUGAUUAGAAC [Zabeceis] (Eterna round: R96, puzzle: Same State NG 3)”, the “apparent KD of MS2 coat protein” value is, setting by setting: (input ligand: FMN 200 uM) 1680 nM; under setting [1], 69.6 nM; (input ligand: none) 36.4 nM.

Regarding “CACCAGAGGAGAGGAUAUGGUCGAACCCACAGUCCAGAAGGCUCACAGGAACCUAGAGACAUGAGGAUCACCCAUGUGGCGACC [Eternabot solution 7] (Eterna round: R96, puzzle: Same State NG 1)”, the “apparent KD of MS2 coat protein” value (input ligand: FMN 200 uM) is 144 nM, the “apparent KD of MS2 coat protein” value under setting [1] was 105 nM and the “apparent KD of MS2 coat protein” value (input ligand: none) came to 165 nM.

“CACGUCCAGGUAGGAUAUGAGGUGCCACAGGGAAAAGCCUGUGGACAUGAGGAUCACCCAUGUCCUCAGAAGGGCCGGACGUGG [Reanorge] (Eterna round: R96, puzzle: Same State NG 2)”: the “apparent KD of MS2 coat protein” value amounted to 17.3 nM (input ligand: FMN 200 uM), 52.8 nM under setting [1] and 72 nM (input ligand: none).

On to “CAGCACUGUCGAGAGGAUAUGCGGUGAUAGACAUGAGGAUCACCCAUGUUAGCGACAGCAUCACGGCAGAAGGCUCUGCUGCUGC [Soteed Omei mod 40] (puzzle: Same State 2)”, for which the “apparent KD of MS2 coat protein” value under setting [2] was found to be 43.5 nM, the “apparent KD of MS2 coat protein” value under setting [3] was 130 nM and the “apparent KD of MS2 coat protein” value under setting [4] turned out to be 349 nM.

“CAGCACUGUCGAGAGGAUAUGCGGUGAUGGACAUGAGGAUCACCCAUGUUAGCGACAGCAUCACGGCAGAAGGCUCUACUGUUGC [Soteed Omei mod 34] (puzzle: Same State 2)”: the “apparent KD of MS2 coat protein” value was found to be 12.6 nM under setting [2], 12.2 nM under setting [3] and 14.3 nM under setting [4].

In the case of “CAGCGUACCGGAGGAUAUUGUGGAUACGACCAACAUGAGGAUCACCCAUGUGGGACUAGUCAAAUCAAGAAGGUUGGACCGUCA [Eternabot solution 44] (Eterna round: R96, puzzle: Same State NG 2)”, the “apparent KD of MS2 coat protein” value is, setting by setting: (input ligand: FMN 200 uM) 26.2 nM; under setting [1], 25.6 nM; (input ligand: none) 33.3 nM.

Turning to “CAGGCGCAACAUGAGGAUCACCCAUGUGCUAACUUAACAGGGCAGGAUAUGGAAGCUCUAUGUCUCCAGAAGGGCUGGCGGAGC [Eternabot solution 38] (Eterna round: R96, puzzle: Same State NG 3)”, the “apparent KD of MS2 coat protein” value runs as follows: (input ligand: FMN 200 uM) 48.2 nM; under setting [1], 32.6 nM; (input ligand: none) 53.3 nM.

For “CAUAAACCUCACGAGGAUAUCCACAGAUAGACAUGAGGAUCACCCAUGUCGACUUUCGAACUGAGGGAGAAGGCGUAGGUACUAA [Gebiorge] (puzzle: Same State 2)”, the “apparent KD of MS2 coat protein” value under setting [2] came to 12.1 nM, the “apparent KD of MS2 coat protein” value under setting [3] turned out to be 13.1 nM and the “apparent KD of MS2 coat protein” value under setting [4] came out at 13.4 nM.

Turning to “CAUCGUUUGAUAGGAUAUCGCUAUACAUGAGGAUCACCCAUGUUUACCACGCUGGUUUUUCAUACCGAGAAGGAUUCUGAUGAA [salish99_SSNG02_r04_011] (Eterna round: R96, puzzle: Same State NG 2)”, the “apparent KD of MS2 coat protein” value reads like this: (input ligand: FMN 200 uM) 24.9 nM; under setting [1], 29.7 nM; (input ligand: none) 34.5 nM.

As to “CAUCGUUUGAUAGGAUAUCGCUAUACAUGAGGAUCACCCAUGUUUACCACGCUGGUUUUUCAUACCGAGAAGGAUUCUGAUGAU [salish99_SSNG02_r04_013] (Eterna round: R96, puzzle: Same State NG 2)”, the “apparent KD of MS2 coat protein” value (input ligand: FMN 200 uM) was 29.6 nM, the “apparent KD of MS2 coat protein” value under setting [1] was determined as 27.8 nM and the “apparent KD of MS2 coat protein” value (input ligand: none) stood at 32.5 nM.
